Results from the supplement of paper PMC10724198.
± gives the standard deviation of the averaged measurements.

What follows are sequences tested on Saccharomyces cerevisiae (assay: protein stability index of tFT-peptide fusion (C-terminal peptide) (PSI (0-1 scale)); higher = more stable (slower turnover)). Details: genetic background: wild type; temperature: 30 C.
Protocol: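 Multiplexed protein stability (MPS) profiling in S. cerevisiae. Random 12-aa peptides (tFT-X12 library) are fused to the C-terminus of a sfGFP-mCherry tandem fluorescent timer, after mCherry and a GGGS linker. Cells are FACS-sorted into 8 mCherry/sfGFP bins and deep-sequenced. The protein stability index (PSI) is the read-weighted bin average, scaled from 0 (unstable) to 1 (stable). Only peptides with >10 reads are reported; cells were grown at 30 °C in SC-His with glucose.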
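Also: PSI is a weighted mean of sequencing reads over stability bins, variants kept only with over 10 reads, mCherry proximal and sfGFP distal, peptide attached via GGGS linker.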

Sequence | protein stability index
GPSSVGWLFVVC | 0.553 ± 0.039
GPSTVPGHGSDT | 0.689 ± 0.021
GPTFPPGLPSSL | 0.695 ± 0.09
GQEAGRERNNWQ | 0.694 ± 0.011
GQGEPRRVWGVV | 0.6746 ± 0.005
GQGGRAGRAADV | 0.6532 ± 0.001
GQIKIRAFPKSR | 0.662 ± 0.052
GQPYTHASSSIG | 0.685 ± 0.017
GQSVRELDSIKV | 0.652 ± 0.17
GQVSVGAVGSFE | 0.642 ± 0.097
GRACCILWGGPE | 0.694 ± 0.06
GRASGGGLGRGR | 0.593 ± 0.0086
GRDSECCSGGGG | 0.683 ± 0.018
GRENKWGKGRRE | 0.67 ± 0.035
GRFVVHEEVWFV | 0.6958 ± 0.0035
GRGACHSRGNQP | 0.668 ± 0.014
GRGGARARRRVL | 0.687 ± 0.071
GRGGEVALWRGV | 0.6479 ± 0.0014
GRGGGGVEPCFV | 0.669 ± 0.07
GRGICFGLPFLR | 0.683 ± 0.039
GRGLAEGRRITR | 0.638 ± 0.062
GRGLVDLLCGWV | 0.683 ± 0.074
GRGRCRGGVAVE | 0.751 ± 0.23
GRGSAGPARVST | 0.697 ± 0.024
GRGSGRCVVYWG | 0.651 ± 0.069
GRGVAPQGAVDA | 0.714 ± 0.027

Sequence | protein stability index
GRKGARESSNEI | 0.667 ± 0.0075
GRKNPPGTTDES | 0.725 ± 0.073
GRKSSITLLHTL | 0.58 ± 0.043
GRLFLHPSLLAS | 0.596 ± 0.062
GRLIGICECLSV | 0.622 ± 0.017
GRLIRYGSLPSP | 0.729 ± 0.032
GRLLVSVFEVVH | 0.614 ± 0.14
GRMGGWCVSGEV | 0.658 ± 0.017
GRNIIARLNNMT | 0.5748 ± 0.0047
GRNLFGLLWARP | 0.721 ± 0.0094
GRRERSGKGKER | 0.804 ± 0.14
GRRGWFESSIRR | 0.731 ± 0.014
GRRPRRLNKDVQ | 0.614 ± 0.025
GRRRARPISRGT | 0.681 ± 0.047
GRRRSRGRPIDL | 0.754 ± 0.03
GRRRTFGRSRGG | 0.651 ± 0.029
GRRVKTVNSLGL | 0.709 ± 0.061
GRRWKQHPGWVS | 0.573 ± 0.051
GRSGSVGGIRGR | 0.727 ± 0.04
GRSGWFGSEGVR | 0.803 ± 0.12
GRSHYFLSILRI | 0.5268 ± 0.0018
GRSIGVGGGGRG | 0.719 ± 0.059
GRSLGTPRYHPG | 0.713 ± 0.016
GRSRGEGVRRNH | 0.583 ± 0.042
GRSYCTLVFVWK | 0.582 ± 0.011
GRTDKKKFISGL | 0.608 ± 0.029

Sequence | protein stability index
GRTENKKPSIKL | 0.711 ± 0.058
GRVFDTNGIGLG | 0.694 ± 0.074
GRVIVCLSWGRL | 0.591 ± 0.019
GRVKEKCKRRYR | 0.657 ± 0.034
GRVLSEAWSEAF | 0.664 ± 0.054
GRVPSPDIGLPA | 0.672 ± 0.022
GRVSFFDYSRER | 0.704 ± 0.06
GRWRVEYWGFGG | 0.722 ± 0.025
GRYYVPGLAALV | 0.653 ± 0.0085
GSAACPVRGRFF | 0.639 ± 0.095
GSCFLLSLVSFI | 0.56199 ± 0.00047
GSDHIRQRNRME | 0.716 ± 0.025
GSDPPAPLRHPR | 0.709 ± 0.19
GSDVPCFLSLSY | 0.711 ± 0.02
GSDWGYDSGLKG | 0.765 ± 0.044
GSEVWGSPGFGG | 0.803 ± 0.0083
GSFPNSADQTFD | 0.659 ± 0.014
GSGGGVRRTIML | 0.739 ± 0.022
GSGGSGLLLVEW | 0.763 ± 0.02
GSGKHVGYIRVK | 0.656 ± 0.0082
GSGLWAGLWRAW | 0.727 ± 0.078
GSGRLGGDRVVG | 0.6578 ± 0.0029
GSGRSGSRFLPV | 0.6606 ± 0.0057
GSGVGACRGVKV | 0.685 ± 0.034
GSGYRPRVESWI | 0.681 ± 0.0079
GSKLTLRLSEHF | 0.686 ± 0.025

Sequence | protein stability index
GSLGVWKGCGEG | 0.652 ± 0.018
GSLHPAPDLRTR | 0.709 ± 0.036
GSLLVCGMVAGM | 0.5236 ± 0.0046
GSNCQVRMSIHR | 0.703 ± 0.011
GSNLQWNSKREE | 0.6165 ± 0.0016
GSNTTKRESQPH | 0.708 ± 0.067
GSPPSSLTADSA | 0.683 ± 0.017
GSPSRKGQSRTG | 0.698 ± 0.012
GSRALDSPSHCS | 0.74 ± 0.023
GSRARKARQPHG | 0.582 ± 0.2
GSRGGPVGEAAG | 0.665 ± 0.012
GSRIGTVSIRRI | 0.691 ± 0.072
GSRRVSFFLRFG | 0.647 ± 0.033
GSSAEGKALTES | 0.668 ± 0.053
GSTGRGEGSGVT | 0.664 ± 0.04
GSTLWGMAGGAR | 0.6985 ± 0.0056
GSVEGVLWSGVL | 0.711 ± 0.031
GSVFVFWESWRC | 0.6803 ± 0.0029
GSVRCGLRVRVG | 0.605 ± 0.047
GSWIKFVCRRAG | 0.731 ± 0.0095
GSWLGGRTLAGI | 0.707 ± 0.036
GTACIIVSGYGL | 0.643 ± 0.016
GTCWAGAMGGVG | 0.675 ± 0.042
GTDLKGFPFLTF | 0.688 ± 0.014
GTEKESRRKREQ | 0.698 ± 0.042
GTGERHIASEEK | 0.728 ± 0.013

Sequence | protein stability index
GTGMHEGEPGEV | 0.686 ± 0.046
GTGRGRAGARCK | 0.679 ± 0.018
GTRAGGRSKRER | 0.735 ± 0.11
GTRWPLVAPRER | 0.7254 ± 0.0045
GTVGRPNATGKV | 0.742 ± 0.088
GVAEFDGWFCLG | 0.7329 ± 0.0022
GVAWGCVSRVFG | 0.68 ± 0.045
GVCLGCWCWWVG | 0.604 ± 0.044
GVCVLGGWSGFW | 0.758 ± 0.062
GVDPVGVLFCGA | 0.656 ± 0.074
GVEGAEFVEAGT | 0.699 ± 0.041
GVEGCKRAGKLR | 0.651 ± 0.033
GVERLGGVLYVL | 0.6274 ± 0.0015
GVFWGYGLRDGV | 0.731 ± 0.073
GVGCGGACRPVG | 0.662 ± 0.09
GVGFGCGGVWME | 0.731 ± 0.012
GVGFGGGGVWME | 0.746 ± 0.031
GVGGGEAGVIGR | 0.769 ± 0.041
GVGGGGRLMCGV | 0.667 ± 0.04
GVGGGGVGLWLG | 0.656 ± 0.025
GVGSGEASDGCT | 0.626 ± 0.12
GVGWVWGGVWAG | 0.744 ± 0.045
GVGYRLGACPDR | 0.695 ± 0.053
GVIQARRSASSS | 0.689 ± 0.043
GVLEEVGPGLFL | 0.78 ± 0.14
GVLGPSFLSVAV | 0.584 ± 0.0082

Sequence | protein stability index
GVLGRVRLGWVG | 0.671 ± 0.012
GVLKQGSLPCRD | 0.706 ± 0.14
GVLSYCGFVTFG | 0.603 ± 0.02
GVMCRTGSGMVM | 0.711 ± 0.021
GVNDRLIKMSCA | 0.667 ± 0.033
GVPFPGPNTLIL | 0.73 ± 0.075
GVRGLLAGGGVW | 0.709 ± 0.027
GVRRSRAARVRK | 0.777 ± 0.18
GVTYEDFWGYCG | 0.797 ± 0.018
GVVGGGGEAWRE | 0.794 ± 0.038
GVVGTVEGGATG | 0.658 ± 0.037
GVVGVWRGAGWR | 0.717 ± 0.041
GVVSSHVDMIGL | 0.668 ± 0.0067
GVVVGCGYGLVG | 0.665 ± 0.04
GVVWMSCGGGGG | 0.7684 ± 0.0017
GVWEGLQLGLIS | 0.7826 ± 0.0032
GVWGGGGGWGVA | 0.688 ± 0.0096
GVWPVGWWCRGR | 0.748 ± 0.047
GWCACFMGSGWG | 0.703 ± 0.06
GWCRSYVAFGVY | 0.64 ± 0.052
GWDRDQKPENKE | 0.738 ± 0.045
GWFTMLTGAFAE | 0.7249 ± 0.003
GWGGGAAQKCGQ | 0.7 ± 0.039
GWGGGGFRVVVG | 0.782 ± 0.049
GWGMVLYRNMML | 0.6039 ± 0.0046
